Results from PMC5892938, “SARNAclust: Semi-automatic detection of RNA protein binding motifs from immunoprecipitation data”.

Biological target: GST-SBP-SLBP (stem-loop binding protein) (Homo sapiens, UniProt Q14493 1-270)
Assay: EMSA; 320 nM protein, 1 nM RNA, 1 mM Mg2+; EMSA: 10 mM HEPES pH 7.3, 20 mM KCl, 1 mM MgCl2, 20 mM DTT, 5% glycerol, 30 min, 4°C. RBNS: 25 mM Tris pH 7.5, 150 mM KCl, 0.1% Tween, 0.5 mg/mL BSA, 3 mM MgCl2, 1 mM DTT
Settings: protein: recombinant; tags: N-terminal GST and SBP (pGEX6P1-SBP); label: 3' biotin; hairpin

B1: Consensus Loop Only B (CLB) (structured_RNA)
RNA: GGUCACGUCUCAAUCAACUCAACUCCAGGAGUUUACUCCUGUAAUCUCAACAGCUCGCAGUCAAG
  binding result: no binding
